Results: patent US20040175786A1

What follows are substances tested against human CD3 (TCR/CD3 complex) on T-cells (human) (UniProt P07766) (assay: cell-based or functional assay).

Substance | IL-2 production [pg/mL] | INF-γ-production [pg/mL] | T-cell proliferation, immobilized Ak [cpm × 10^3] [cpm] | T-cell proliferation, soluble Ak [cpm × 10^3] [cpm] | TNF-α-production [pg/mL]
monoclonal OKT3 antibody | 467 | 1380 | 12500 | 9500 | 960
scOKT3-γ?IgM, C575S (from UniProt P01871 218-435) (Fc fusion) | 65 | 202 | 3300 | 1900 | 149
scOKT3-γ?IgM, C575S Monomers (from UniProt P01871 218-435) (Fc fusion) | 73 | 189 | 3700 | 2400 | 169
scOKT3-γ?IgM, WT (from UniProt P01871 218-435) (Fc fusion) | 47 | 244 | 4600 | 2600 | 167
scOKT3-γ?IgM, WT Monomers (from UniProt P01871 218-435) (Fc fusion) | 52 | 222 | 4000 | 1800 | 166
scOKT3-γ?IgM, WT Pentamers/hexamers (from UniProt P01871 218-435) (Fc fusion) | 42 | 232 | 3500 | 2100 | 158

The substances below were run against human CD3 (TCR/CD3 complex) on T-cells (human) (UniProt P07766) (assay: FACS staining of CD3+ Jurkat cells).

Substance | percent of Jurkat cells with positive staining [%]
monoclonal OKT3 antibody | > 90

Each substance was assayed against human CD3 (TCR/CD3 complex) on T-cells (human) (UniProt P07766) (assay: FACS staining of CD3+ Jurkat cells with polymer fractions).

Substance | percent of Jurkat cells with positive staining [%]
scOKT3-γ?IgM monomers | 80
scOKT3-γ?IgM pentamers | > 90
